In the supplement of paper PMC10567573:

B1: P2RY14 (parent)
chain: KLLSVIVWMLMLLLAVPNIILTNQ
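Also: lentivirally expressed fusions sorted by FACS into six bins by GFP to DsRed ratio, PSI derived from sequencing read proportions per bin multiplied by bin number.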

Variants of: B1
Assay: protein stability index of a GFP-peptide fusion (GPS, HEK-293T) (PSI 1-6); higher = more stable
Details: c terminus: a fixed tail appended
With KLLSVIVWMVMLLLAVPNIILTNQ the protein stability index was 2.99. Work on KLLSVIVWMEMLLLAVPNIILTNQ yielded a protein stability index of 4.43. Variant KLLSVIVWMGMLLLAVPNIILTNQ has a protein stability index of 2.08. Variant KLLSVIVWMTMLLLAVPNIILTNQ has a protein stability index of 3.58. For KLLSVIVWMMMLLLAVPNIILTNQ, the protein stability index was 3.84. In the case of KLLSVIVWMQMLLLAVPNIILTNQ, the protein stability index is reported as 3.16. Variant KLLSVIVWMDMLLLAVPNIILTNQ has a protein stability index of 2.5. KLLSVIVWMSMLLLAVPNIILTNQ showed a protein stability index of 4.89. In the case of KLLSVIVWMIMLLLAVPNIILTNQ, the protein stability index is reported as 3.19. KLLSVIVWMCMLLLAVPNIILTNQ gave a protein stability index of 1.39. In the case of KLLSVIVWMYMLLLAVPNIILTNQ, the protein stability index is reported as 3.48. KLLSVIVWMPMLLLAVPNIILTNQ showed a protein stability index of 2.86. For KLLSVIVWMHMLLLAVPNIILTNQ, the protein stability index was 3.63. In the case of KLLSVIVWMNMLLLAVPNIILTNQ, the protein stability index is reported as 1.95. Variant KLLSVIVWMWMLLLAVPNIILTNQ has a protein stability index of 2.31. KLLSVIVWMFMLLLAVPNIILTNQ gave a protein stability index of 3.32. Variant KLLSVIVWMLMLLLAAPNIILTNQ has a protein stability index of 2.77. For KLLSVIVWMLMLLLAEPNIILTNQ, the protein stability index was 2.6. KLLSVIVWMLMLLLAFPNIILTNQ showed a protein stability index of 4.27. Work on KLLSVIVWMLMLLLAGPNIILTNQ yielded a protein stability index of 2.36. KLLSVIVWMLMLLLACPNIILTNQ showed a protein stability index of 3.32. Work on KLLSVIVWMLMLLLADPNIILTNQ yielded a protein stability index of 2.52. For KLLSVNVWMLMLLLAVPNIILTNQ, the protein stability index was 3.01. With KLLSVRVWMLMLLLAVPNIILTNQ the protein stability index was 2.43. Variant KLLSVLVWMLMLLLAVPNIILTNQ has a protein stability index of 4.14. Variant KLLSVVVWMLMLLLAVPNIILTNQ has a protein stability index of 4.09. KLLSVSVWMLMLLLAVPNIILTNQ showed a protein stability index of 2.39. KLLSVAVWMLMLLLAVPNIILTNQ showed a protein stability index of 2.45. KLLSVDVWMLMLLLAVPNIILTNQ showed a protein stability index of 2.02. For KLLSVTVWMLMLLLAVPNIILTNQ, the protein stability index was 2.48. Work on KLLSVPVWMLMLLLAVPNIILTNQ yielded a protein stability index of 1.89. KLLSVMVWMLMLLLAVPNIILTNQ gave a protein stability index of 3.13. Work on KLLSVWVWMLMLLLAVPNIILTNQ yielded a protein stability index of 2.02. Work on KLLSVGVWMLMLLLAVPNIILTNQ yielded a protein stability index of 2.2. With KLLSVFVWMLMLLLAVPNIILTNQ the protein stability index was 2.8. KKLSVIVWMLMLLLAVPNIILTNQ showed a protein stability index of 2.76. KNLSVIVWMLMLLLAVPNIILTNQ showed a protein stability index of 1.89. In the case of KPLSVIVWMLMLLLAVPNIILTNQ, the protein stability index is reported as 3.19. Work on KLLWVIVWMLMLLLAVPNIILTNQ yielded a protein stability index of 4.74. In the case of KLLKVIVWMLMLLLAVPNIILTNQ, the protein stability index is reported as 5.66. KLLQVIVWMLMLLLAVPNIILTNQ showed a protein stability index of 2.56. Work on KLLRVIVWMLMLLLAVPNIILTNQ yielded a protein stability index of 2.78. With KLLGVIVWMLMLLLAVPNIILTNQ the protein stability index was 2.85. KLLPVIVWMLMLLLAVPNIILTNQ showed a protein stability index of 3.34. KLLTVIVWMLMLLLAVPNIILTNQ showed a protein stability index of 2.53. Variant KLLVVIVWMLMLLLAVPNIILTNQ has a protein stability index of 3.9. With KLLHVIVWMLMLLLAVPNIILTNQ the protein stability index was 3.18. With KLLIVIVWMLMLLLAVPNIILTNQ the protein stability index was 2.44. Variant KLLNVIVWMLMLLLAVPNIILTNQ has a protein stability index of 2.81. KLLFVIVWMLMLLLAVPNIILTNQ showed a protein stability index of 2.98. For KLLYVIVWMLMLLLAVPNIILTNQ, the protein stability index was 2.82. In the case of KLLSVIRWMLMLLLAVPNIILTNQ, the protein stability index is reported as 2.31. For KLLSVIWWMLMLLLAVPNIILTNQ, the protein stability index was 4.44. Work on KLLSVIYWMLMLLLAVPNIILTNQ yielded a protein stability index of 3.99. Work on KLLSVIQWMLMLLLAVPNIILTNQ yielded a protein stability index of 2.74. In the case of KLLSVISWMLMLLLAVPNIILTNQ, the protein stability index is reported as 2.28. Work on KLLSVITWMLMLLLAVPNIILTNQ yielded a protein stability index of 3.76. KLLSVIHWMLMLLLAVPNIILTNQ showed a protein stability index of 2.11. With KLLSVIMWMLMLLLAVPNIILTNQ the protein stability index was 3.08. Work on KLLSVIKWMLMLLLAVPNIILTNQ yielded a protein stability index of 4.05. In the case of KLLSVIDWMLMLLLAVPNIILTNQ, the protein stability index is reported as 3.57. Work on KLLSVIFWMLMLLLAVPNIILTNQ yielded a protein stability index of 2.12. Variant KLLSVIEWMLMLLLAVPNIILTNQ has a protein stability index of 2.65. KLLSVIAWMLMLLLAVPNIILTNQ showed a protein stability index of 2.07. Work on KLLSVIPWMLMLLLAVPNIILTNQ yielded a protein stability index of 2.8. With KLLSVIVWMLMFLLAVPNIILTNQ the protein stability index was 2.59. In the case of KLLSVIVWMLMRLLAVPNIILTNQ, the protein stability index is reported as 2.69. Work on KLLSVIVWMLMALLAVPNIILTNQ yielded a protein stability index of 2.7. KLLSVIVWMLMGLLAVPNIILTNQ gave a protein stability index of 3.74. KLLSVIVWMLMMLLAVPNIILTNQ gave a protein stability index of 3.06. KLLSVIVWMLMPLLAVPNIILTNQ showed a protein stability index of 3.18. Variant KLLSVIVWMLMCLLAVPNIILTNQ has a protein stability index of 3.75. KLLSVIVWMLMDLLAVPNIILTNQ showed a protein stability index of 2.65. KLLSVIVWMLMQLLAVPNIILTNQ gave a protein stability index of 2.51. Work on KLLSVIVWMLMNLLAVPNIILTNQ yielded a protein stability index of 2.32. Work on KLLSVIVWMLMHLLAVPNIILTNQ yielded a protein stability index of 2.22. Work on KLLSVIVWALMLLLAVPNIILTNQ yielded a protein stability index of 3.79. For KLLSVIVWELMLLLAVPNIILTNQ, the protein stability index was 2.68. With KLLSVIVWGLMLLLAVPNIILTNQ the protein stability index was 2.87. KLLSVIVWDLMLLLAVPNIILTNQ gave a protein stability index of 4.27. Variant KLLSVIVWNLMLLLAVPNIILTNQ has a protein stability index of 2.1. With KLLSVIVWQLMLLLAVPNIILTNQ the protein stability index was 3.1. KLLSVIVWKLMLLLAVPNIILTNQ showed a protein stability index of 3.05. Work on KLLSVIVWLLMLLLAVPNIILTNQ yielded a protein stability index of 3.19. With KLLSVIVWSLMLLLAVPNIILTNQ the protein stability index was 3.82. KLLSVIVWWLMLLLAVPNIILTNQ showed a protein stability index of 2.15. Variant KLLSVIVWMLALLLAVPNIILTNQ has a protein stability index of 2.06. Variant KLLSVIVWMLSLLLAVPNIILTNQ has a protein stability index of 2.01. Work on KLLSVIVWMLHLLLAVPNIILTNQ yielded a protein stability index of 3. Variant KLLSVIVWMLILLLAVPNIILTNQ has a protein stability index of 3.17. Work on KLLSVIVWMLKLLLAVPNIILTNQ yielded a protein stability index of 2.5. Work on KLLSVIVWMLRLLLAVPNIILTNQ yielded a protein stability index of 2.58. In the case of KLLSVIVWMLQLLLAVPNIILTNQ, the protein stability index is reported as 1.1. With KLLSVIVWMLNLLLAVPNIILTNQ the protein stability index was 2.42.
